In patent publication US20200255869:

Target: purified HSA (Abcam, ab201876) (UniProt P02768)
Sequence of UniProt P02768 (P02768 whole entry, looked up): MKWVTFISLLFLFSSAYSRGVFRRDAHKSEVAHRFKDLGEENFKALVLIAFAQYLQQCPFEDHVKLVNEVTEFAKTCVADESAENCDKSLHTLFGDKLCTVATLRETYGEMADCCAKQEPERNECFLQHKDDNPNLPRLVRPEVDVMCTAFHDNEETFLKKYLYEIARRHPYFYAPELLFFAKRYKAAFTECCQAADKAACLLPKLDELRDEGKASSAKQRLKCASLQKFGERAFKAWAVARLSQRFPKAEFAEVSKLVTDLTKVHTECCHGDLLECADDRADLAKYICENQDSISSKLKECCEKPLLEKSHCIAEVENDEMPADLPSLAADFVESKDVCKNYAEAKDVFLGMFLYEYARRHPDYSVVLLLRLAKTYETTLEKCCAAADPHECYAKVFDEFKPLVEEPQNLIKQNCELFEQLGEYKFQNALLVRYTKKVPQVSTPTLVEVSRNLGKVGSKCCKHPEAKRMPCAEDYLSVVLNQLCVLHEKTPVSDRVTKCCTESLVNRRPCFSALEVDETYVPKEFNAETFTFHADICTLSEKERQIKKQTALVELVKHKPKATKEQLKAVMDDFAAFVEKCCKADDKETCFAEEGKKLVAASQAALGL

## YscB protein of Talaromyces cellulolyticus strain S6-25
  degradation of purified HSA mixed with culture supernatant (30 C, 3 days), SDS-PAGE and Western blotting using an anti-HSA antibody: in the case of the strain deficient in yscB, the bands corresponding to degradation products were eliminated
